Source: patent US20230149509A1 (Genentech, published 2023)

T1: CD122/CD132 on human lymphocytes (CD8+ T cells and NK cells in human PBMCs) (human, UniProt P31785 23-369)
T1 sequence 1: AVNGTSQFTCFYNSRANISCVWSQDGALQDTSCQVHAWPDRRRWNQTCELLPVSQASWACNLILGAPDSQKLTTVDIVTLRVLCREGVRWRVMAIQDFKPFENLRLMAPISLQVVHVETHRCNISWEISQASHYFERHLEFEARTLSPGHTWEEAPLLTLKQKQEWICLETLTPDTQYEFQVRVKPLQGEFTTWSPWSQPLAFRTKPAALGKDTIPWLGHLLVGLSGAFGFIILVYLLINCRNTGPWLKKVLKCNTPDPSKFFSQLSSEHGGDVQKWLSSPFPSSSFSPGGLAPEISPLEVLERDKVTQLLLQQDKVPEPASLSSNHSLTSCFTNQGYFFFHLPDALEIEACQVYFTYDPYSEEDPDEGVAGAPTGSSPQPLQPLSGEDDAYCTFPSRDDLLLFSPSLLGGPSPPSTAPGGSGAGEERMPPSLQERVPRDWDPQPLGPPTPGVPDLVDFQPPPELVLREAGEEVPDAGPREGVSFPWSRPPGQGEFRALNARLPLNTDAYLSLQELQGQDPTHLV
T1 sequence 2: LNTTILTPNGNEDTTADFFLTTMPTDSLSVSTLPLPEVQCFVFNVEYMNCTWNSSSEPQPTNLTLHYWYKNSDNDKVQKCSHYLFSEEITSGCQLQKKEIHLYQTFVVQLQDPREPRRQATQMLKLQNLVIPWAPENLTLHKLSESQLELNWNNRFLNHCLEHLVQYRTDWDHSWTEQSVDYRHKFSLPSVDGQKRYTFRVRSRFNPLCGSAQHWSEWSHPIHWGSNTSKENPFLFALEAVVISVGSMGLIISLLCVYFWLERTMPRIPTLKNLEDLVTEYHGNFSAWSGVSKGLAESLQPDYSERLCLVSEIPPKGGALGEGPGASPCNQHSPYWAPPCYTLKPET

T2: CD122/CD132 on cynomolgus monkey lymphocytes (CD8+ T cells and NK cells in cynomolgus PBMCs) (cynomolgus monkey, UniProt Q38J85 27-551; A0A2K5VGJ6 23-369)
T2 sequence (looked up) 1: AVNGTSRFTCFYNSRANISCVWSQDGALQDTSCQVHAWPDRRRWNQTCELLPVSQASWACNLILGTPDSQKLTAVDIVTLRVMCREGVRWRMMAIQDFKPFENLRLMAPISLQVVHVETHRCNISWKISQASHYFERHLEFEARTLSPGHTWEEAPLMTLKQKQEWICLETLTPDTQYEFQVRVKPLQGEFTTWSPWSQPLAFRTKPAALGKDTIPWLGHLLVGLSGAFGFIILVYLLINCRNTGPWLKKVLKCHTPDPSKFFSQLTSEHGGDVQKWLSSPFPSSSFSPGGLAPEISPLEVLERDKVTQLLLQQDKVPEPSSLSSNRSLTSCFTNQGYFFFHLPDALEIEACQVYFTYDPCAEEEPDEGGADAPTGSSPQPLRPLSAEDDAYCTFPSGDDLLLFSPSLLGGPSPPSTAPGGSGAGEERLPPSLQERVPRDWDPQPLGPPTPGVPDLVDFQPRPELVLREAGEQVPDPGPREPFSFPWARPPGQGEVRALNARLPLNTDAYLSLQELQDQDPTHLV
T2 sequence (looked up) 2: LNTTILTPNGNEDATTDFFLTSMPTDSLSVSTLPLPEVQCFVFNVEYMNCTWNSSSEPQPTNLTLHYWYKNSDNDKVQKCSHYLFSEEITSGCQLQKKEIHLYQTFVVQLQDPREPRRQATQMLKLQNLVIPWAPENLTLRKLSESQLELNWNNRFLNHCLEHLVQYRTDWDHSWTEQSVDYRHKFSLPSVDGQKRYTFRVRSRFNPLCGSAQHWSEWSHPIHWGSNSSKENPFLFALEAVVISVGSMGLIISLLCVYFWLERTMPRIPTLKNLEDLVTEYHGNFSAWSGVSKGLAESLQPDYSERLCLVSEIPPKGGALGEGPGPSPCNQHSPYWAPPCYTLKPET

T3: mouse FcRn (mouse, UniProt Q61559 22-297; P01887 21-119)
T3 construct: The construct is not described
T3 sequence (looked up): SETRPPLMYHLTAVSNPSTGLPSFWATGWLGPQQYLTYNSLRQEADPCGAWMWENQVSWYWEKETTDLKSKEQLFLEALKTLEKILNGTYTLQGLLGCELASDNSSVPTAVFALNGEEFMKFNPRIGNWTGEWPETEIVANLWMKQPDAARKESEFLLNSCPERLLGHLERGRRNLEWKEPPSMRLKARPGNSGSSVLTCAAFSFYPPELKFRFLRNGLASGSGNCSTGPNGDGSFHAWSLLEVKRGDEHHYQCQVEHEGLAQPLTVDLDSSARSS
T3 sequence (b2m, looked up): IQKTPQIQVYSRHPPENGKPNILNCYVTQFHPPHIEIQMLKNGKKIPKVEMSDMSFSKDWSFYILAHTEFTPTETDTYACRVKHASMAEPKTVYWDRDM


How the values were obtained:
[1] = target: T1, CD122/CD132 on human lymphocytes (CD8+ …); assay: cell-based or functional assay
[2] = target: T2, CD122/CD132 on cynomolgus monkey …; assay: cell-based or functional assay
mouse FcRn = target: T3, mouse FcRn; assay: BLI, pH 6.0; tested as the mixture
cynomolgus monkey FcRn = target: T4, cynomolgus monkey FcRn (cynomolgus monkey, UniProt Q8SPV9 24-297; Q8SPW0 21-119); assay: BLI, pH 6.0; tested as the mixture
T4 construct: The construct is not described

human FcRn = target: T5, human FcRn (human, UniProt P55899 24-297; P61769 21-119); assay: BLI, pH 6.0; tested as the mixture
T5 construct: The construct is not described; also called human neonatal Fc receptor

[3] = target: T6, human complement component 1q (C1q) (human, UniProt P02745 23-245; P02746 28-253; P02747 29-245); assay: BLI; tested as the mixture XENP24306+XENP32803
T6 construct: The subunit composition is from general knowledge; also called human C1q
T6 sequence (P02745 23-245 limits assumed, chain 1 of 3): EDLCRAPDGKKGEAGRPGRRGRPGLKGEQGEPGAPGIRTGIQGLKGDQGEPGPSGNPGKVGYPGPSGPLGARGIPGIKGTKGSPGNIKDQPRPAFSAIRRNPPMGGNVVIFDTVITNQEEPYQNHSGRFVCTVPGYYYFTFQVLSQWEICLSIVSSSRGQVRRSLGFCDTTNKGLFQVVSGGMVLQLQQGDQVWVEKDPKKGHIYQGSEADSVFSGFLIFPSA
T6 sequence (P02746 28-253 limits assumed, chain 2 of 3): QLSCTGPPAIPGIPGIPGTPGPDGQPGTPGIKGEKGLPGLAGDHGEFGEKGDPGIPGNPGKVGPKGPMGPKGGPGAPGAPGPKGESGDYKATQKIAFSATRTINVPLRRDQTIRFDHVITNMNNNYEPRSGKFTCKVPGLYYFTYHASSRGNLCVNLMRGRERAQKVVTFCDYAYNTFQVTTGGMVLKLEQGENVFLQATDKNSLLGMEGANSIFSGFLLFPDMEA
T6 sequence (P02747 29-245 limits assumed, chain 3 of 3): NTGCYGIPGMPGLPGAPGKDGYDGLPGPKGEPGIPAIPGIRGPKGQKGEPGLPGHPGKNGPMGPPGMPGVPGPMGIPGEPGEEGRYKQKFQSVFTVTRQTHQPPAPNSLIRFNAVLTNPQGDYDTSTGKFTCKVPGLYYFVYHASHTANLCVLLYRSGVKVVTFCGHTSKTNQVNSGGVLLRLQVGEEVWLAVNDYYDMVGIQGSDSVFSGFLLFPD

T4 sequence (Q8SPV9 24-297 limits assumed, chain 1 of 2): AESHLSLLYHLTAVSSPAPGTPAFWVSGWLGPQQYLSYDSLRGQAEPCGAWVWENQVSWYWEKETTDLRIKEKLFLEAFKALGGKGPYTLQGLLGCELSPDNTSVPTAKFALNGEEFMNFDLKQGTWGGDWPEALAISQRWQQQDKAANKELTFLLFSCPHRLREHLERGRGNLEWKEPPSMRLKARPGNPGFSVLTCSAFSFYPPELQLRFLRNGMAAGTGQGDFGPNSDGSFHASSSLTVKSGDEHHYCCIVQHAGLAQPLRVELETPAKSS
T4 sequence (Q8SPW0 21-119 limits assumed, chain 2 of 2): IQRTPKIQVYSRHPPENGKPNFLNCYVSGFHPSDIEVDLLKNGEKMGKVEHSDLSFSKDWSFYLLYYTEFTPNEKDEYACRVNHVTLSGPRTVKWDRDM

| CD8+ T cell proliferation (Ki67+) in human PBMCs, EC50 [1] | NK-cell proliferation (Ki67+) in human PBMCs, EC50 [1] | potency on CD8+ terminal effector T cell proliferation (Ki67) in human PBMC, fold lower than XENP22853 (wild-type IL-15/wild-type IL-15Rα heterodimer Fc fusion) [1] | potency on CD8+ terminal effector T cell proliferation (Ki67) in human PBMC, fold lower than recombinant wild-type IL-15 [1] | CD8+ T cell proliferation in cynomolgus monkey PBMCs, EC50 [2] | NK-cell proliferation in cynomolgus monkey PBMCs, EC50 [2] | binding result (mouse FcRn) | binding result (cynomolgus monkey FcRn) | binding result (human FcRn) | binding result [3] | Binder |
| --- | --- | --- | --- | --- | --- | --- | --- | --- | --- | --- |
| 12.7 µg/mL | 1.2 µg/mL | ~400 fold | ~900 fold | 3.8 µg/mL | 0.5 µg/mL | binds | binds | binds | no binding | XENP24306 (Fc fusion, All experiments used a mixture of XENP24306 (~82%) and XENP32803 (~18%), printed as 'XENP24306+XENP32803'; Each result is written once for each of the two members; also called XmAb24306; XENP24306+XENP32803 (the ~82% component of the tested combination)) chain 1: NWVNVISDLKKIEDLIQSMHIDATLYTESNVHPSCKVTAMKCFLLELQVISLESGDASIHDTVQDLIILANNSLSSNGNVTESGCKECEELEEKNIKEFLQSFVHIVQMFINTSGGGGSEPKSSDKTHTCPPCPAPPVAGPSVFLFPPKPKDTLMISRTPEVTCVVVDVKHEDPEVKFNWYVDGVEVHNAKTKPREEEYNSTYRVVSVLTVLHQDWLNGKEYKCKVSNKALPAPIEKTISKAKGQPREPQVYTLPPSREEMTKNQVSLTCDVSGFYPSDIAVEWESDGQPENNYKTTPPVLDSDGSFFLYSKLTVDKSRWEQGDVFSCSVLHEALHSHYTQKSLSLSPGK chain 2: ITCPPPMSVEHADIWVKSYSLYSRERYICNSGFKRKAGTSSLTECVLNKATNVAHWTTPSLKCIRGGGGSEPKSSDKTHTCPPCPAPPVAGPSVFLFPPKPKDTLMISRTPEVTCVVVDVKHEDPEVKFNWYVDGVEVHNAKTKPREEQYNSTYRVVSVLTVLHQDWLNGKEYKCKVSNKALPAPIEKTISKAKGQPREPQVYTLPPSREQMTKNQVKLTCLVKGFYPSDIAVEWESNGQPENNYKTTPPVLDSDGSFFLYSKLTVDKSRWQQGNVFSCSVLHEALHSHYTQKSLSLSPGK |
| 12.7 µg/mL | 1.2 µg/mL | ~400 fold | ~900 fold | 3.8 µg/mL | 0.5 µg/mL | binds | binds | binds | no binding | XENP32803 (Fc fusion, All experiments used a mixture of XENP24306 (~82%) and XENP32803 (~18%), printed as 'XENP24306+XENP32803'; Each result is written once for each of the two members; also called XENP24306+XENP32803 (the ~18% component of the tested combination); IL15/IL15Rα heterodimeric protein) chain 1: NWVNVISDLKKIEDLIQSMHIDATLYTESNVHPSCKVTAMKCFLLELQVISLESGDASIHDTVQDLIILANNSLSSNGNVTESGCKECEELEEKNIKEFLQSFVHIVQMFINTSGGGGSEPKSSDKTHTCPPCPAPPVAGPSVFLFPPKPKDTLMISRTPEVTCVVVDVKHEDPEVKFNWYVDGVEVHNAKTKPREEEYNSTYRVVSVLTVLHQDWLNGKEYKCKVSNKALPAPIEKTISKAKGQPREPQVYTLPPSREEMTKNQVSLTCDVSGFYPSDIAVEWESDGQPENNYKTTPPVLDSDGSFFLYSKLTVDKSRWEQGDVFSCSVLHEALHSHYTQKSLSLSPGK chain 2: ITCPPPMSVEHADIWVKSYSLYSRERYICNSGFKRKAGTSSLTECVLNKATNVAHWTTPSLKCIRGGGGSEPKSSDKTHTCPPCPAPPVAGPSVFLFPPTPKDTLMISRTPEVTCVVVDVKHEDPEVKFNWYVDGVEVHNAKTKPREEQYNSTYRVVSVLTVLHQDWLNGKEYKCKVSNKALPAPIEKTISKAKGQPREPQVYTLPPSREQMTKNQVKLTCLVKGFYPSDIAVEWESNGQPENNYKTTPPVLDSDGSFFLYSKLTVDKSRWQQGNVFSCSVLHEALHSHYTQKSLSLSPGK |
